Test results: patent US12077763B2, “RNA-based control of powdery mildew” (Greenlight Biosciences, Inc., priority 2021, dated 2024)

B1: GS3466 (nucleic acid)
sense: CACGAAUACGUGUAAUUCCUUCUCUCAUGAUACUUUCUCGUUUCUCACAUUGCUUUUUGAAUUUAGAAAAUGCUAGCGUUUCUAAAUCUUUUUGUUGAGCUUUUAAAUCGUUGAUCAUGGCCAUUUGCUCGUCAAUUUUUACUAAAAAGUCCUUGACAUGCCUAUUUACAUUGAAUACGUUUCUGGUAACCUUGGUUUGAAUAUUUUUUGCUCGAUUUGCAUAACGCAAUGUAUUCUGAGUCUCAUCAAAAUGUGCACUAGACGGACUUACGCAAACAAUCAUUACGGUCUUGCAAUUGCCACCGAGAGAAAACUUUAGCAGUCGAGUUAACUUUGAAUUCCGAUAUGGAACGUGGUUUUUUUUUCGGGGAUCACAAA
antisense: UUUGUGAUCCCCGAAAAAAAAACCACGUUCCAUAUCGGAAUUCAAAGUUAACUCGACUGCUAAAGUUUUCUCUCGGUGGCAAUUGCAAGACCGUAAUGAUUGUUUGCGUAAGUCCGUCUAGUGCACAUUUUGAUGAGACUCAGAAUACAUUGCGUUAUGCAAAUCGAGCAAAAAAUAUUCAAACCAAGGUUACCAGAAACGUAUUCAAUGUAAAUAGGCAUGUCAAGGACUUUUUAGUAAAAAUUGACGAGCAAAUGGCCAUGAUCAACGAUUUAAAAGCUCAACAAAAAGAUUUAGAAACGCUAGCAUUUUCUAAAUUCAAAAAGCAAUGUGAGAAACGAGAAAGUAUCAUGAGAGAAGGAAUUACACGUAUUCGUG
B2: GS3474 (nucleic acid)
sense: UAAGCAAUUUGAUGAUGAUCAUUAUGGUCUGGAGAAAGUCAAGAAAAGACUCCUUGAAUAUUUAGCGGUUCUCAAACUAAAGCAAUCAAUAAAUCAAGACAUUGACAUCAAGAUUAAGAAGGCAUCUGAAGAAAGAGCACAUGAAAAACUAGAAAUCUUAAAAAGUCAGAGAAUGGUUGAUAAAUCGCCUAUCUUGCUACUCGUUGGUCCUCCAGGUGUAGGUAAAACAAGCCUCGCAAAAUCUGUUGCAACAGCACUUGGUCGUAAAUUUCAUCGAAUUUCUCUUGGUGGUGUUCGGGAUGAGGCUGAAAUUAGGGGACAUCGUCGUACUUACGUUGCAGCUAUGCCAGGCCUCAUAAUUCAAGGGCUUAAGAAAGUUGGAGUGUGCAAUCCCGUUUUUCUUUUAGAUGAAAUUGAUAAAAUUGGGAGUUCUAAUUUCCAAGGUGAUCCUAGCGCUGCAAUGCUCGAAGUCCUCGAUCCAGAGCAGAAUCACAGUUUUACAGACCACUACGUCAAUAUUCCAGUAGACCUUAGCAAAGUUCUGUUUAUCGCUACUGCAAAUAGUCUGGAUACUAUUUCACCACCACUCUUAGACAGA
antisense: AAUGACAUGGAUUAUGUUGAACAUCAUUUUGGUCCUGCAGGCUUAAAUCGACAGGACAUUGUCCAUACAUACAGAACUCUUAAUGCAAAGAUUAUUAAAGCUGACCUCCUUCGUUAUUUGAUUAUGUAUGUGGAAGGAGGUCUAUACGCUGACAUUGAUGUCGAAGCUUUACGUCCAAUUGAACGUUUUAUUCCAGAGCGAUGGAACGAGAAAGACAUUGAUAUGAUUGUAGGGGUCGAGAUUGAUAUGCCGCAUUAUUCCGAUCACCCUAUUCUUGGUCCUAAAUCUAAAUCAUUUUGCCAAUGGACAUUUAUGUGCAAGCCACGUCUACCGGUGAUGAUGCAAUUAAUUGAUAAUAUUAUCGUCUGGCUCAAUCAGCUUUCCCGA
B3: GS3467 (nucleic acid)
sense: CCCAGCUUCAUUAGAGUGGUCAAAGAAACCAUUGUAGGUGUGAAUAGGAGGCUGAACUAGAGAUAAGAUGGUAUUAUGCAGAAUAUGACAAGUAGGAUUGCAUUGCUUAUCUUUAAUAAUCUCUCUCUUAAUUGUUAUCUUAGAAGCAAAGUUAGUUUCAUCAUCGCUUAAUUUUAAAUUAAUAAGUGAAACUUUGCUUCCAUAAGGUGAGCUACAAGGUGAUGGCUGAAUUAAAUCUUCAACUUUUUUAUUAUCAGUCCUUAUUUCUAGGUCAUAUGACCUAGAAUCUUCUAUAAAUUUUCUAAGCUUAUUUGAAGAAUCCUUAGUAGGUGUUUUUGCAAUGAAACGAUUAUUUUCUUCAGGUAAGAUUGUAGCGACGCUAACCGAUGACUCAGU
antisense: ACUGAGUCAUCGGUUAGCGUCGCUACAAUCUUACCUGAAGAAAAUAAUCGUUUCAUUGCAAAAACACCUACUAAGGAUUCUUCAAAUAAGCUUAGAAAAUUUAUAGAAGAUUCUAGGUCAUAUGACCUAGAAAUAAGGACUGAUAAUAAAAAAGUUGAAGAUUUAAUUCAGCCAUCACCUUGUAGCUCACCUUAUGGAAGCAAAGUUUCACUUAUUAAUUUAAAAUUAAGCGAUGAUGAAACUAACUUUGCUUCUAAGAUAACAAUUAAGAGAGAGAUUAUUAAAGAUAAGCAAUGCAAUCCUACUUGUCAUAUUCUGCAUAAUACCAUCUUAUCUCUAGUUCAGCCUCCUAUUCACACCUACAAUGGUUUCUUUGACCACUCUAAUGAAGCUGGG
B4: GS3472 (nucleic acid)
sense: UUAUUUGUGGCGACCUACCGAAAAUAAUCGAAGAUUCGCAAUGAGUGAUGAGUUAGCACAGGACGAUGAAGGUUUUGAAAUAUCCGACUUUGGAGUUGAAGACGAUGAAAUAGAGUCUACUAUAGGCCAAAAAGAAGAUAGAGAUCAAAGGCCAGAAGAGACGAGGUACAAUCCUGCGCCGAAAAAUUCCGGACGAAAGACUGUAAAAAAUACAACACGUGAGAGCUUAGAAAGAGAAACGAUAUUUACUGUUGGUGAAGACGGGGACAAAUGGUCAAAUAAUGAUAGUGACGAGGAGCAUGUUAAUCUCGUUAGUGGGUCAAACAAGCCUUCUUAGAUUUACGACAAUUUUUUU
antisense: AAAAAAAUUGUCGUAAAUCUAAGAAGGCUUGUUUGACCCACUAACGAGAUUAACAUGCUCCUCGUCACUAUCAUUAUUUGACCAUUUGUCCCCGUCUUCACCAACAGUAAAUAUCGUUUCUCUUUCUAAGCUCUCACGUGUUGUAUUUUUUACAGUCUUUCGUCCGGAAUUUUUCGGCGCAGGAUUGUACCUCGUCUCUUCUGGCCUUUGAUCUCUAUCUUCUUUUUGGCCUAUAGUAGACUCUAUUUCAUCGUCUUCAACUCCAAAGUCGGAUAUUUCAAAACCUUCAUCGUCCUGUGCUAACUCAUCACUCAUUGCGAAUCUUCGAUUAUUUUCGGUAGGUCGCCACAAAUAA
B5: GS3523 (nucleic acid)
sense: UAACGAGAGAGAAUACACGGUAAAGACAGUAGUAUGGCAUAUGAUGCAAAAUGUAGAAAAGAUUGUAAUUGAGUUGGCAGUAAGUUCAUUCACGAAAAAUGAAUUAUUUUCCACACCAUAUCCGGGCUGAGGAAGGAAGACAUUUGUUUUCAAGUCAAGUUAAUGAAAAAACCAAAAAUAAAACUCAAACACACAGUGAGUAAUUUUUAUUAAGGUGGUCCAAUAAUAAUUUUUUCUGACAUGUACUCCUUGUAGUUUUGAGAUGAAAAUAGAGAUAAUAUUGAGUCUGUCGUUAUCCGAAACAGUUUAUGUUAGAGGUUGAUAAAUGACGAUACAAAAUGUAUAUAUUAGGAAAUCAAUUUACCGUGACCAAUGAGAAAAGAGGAGGUCUAAUU
antisense: AAUUAGACCUCCUCUUUUCUCAUUGGUCACGGUAAAUUGAUUUCCUAAUAUAUACAUUUUGUAUCGUCAUUUAUCAACCUCUAACAUAAACUGUUUCGGAUAACGACAGACUCAAUAUUAUCUCUAUUUUCAUCUCAAAACUACAAGGAGUACAUGUCAGAAAAAAUUAUUAUUGGACCACCUUAAUAAAAAUUACUCACUGUGUGUUUGAGUUUUAUUUUUGGUUUUUUCAUUAACUUGACUUGAAAACAAAUGUCUUCCUUCCUCAGCCCGGAUAUGGUGUGGAAAAUAAUUCAUUUUUCGUGAAUGAACUUACUGCCAACUCAAUUACAAUCUUUUCUACAUUUUGCAUCAUAUGCCAUACUACUGUCUUUACCGUGUAUUCUCUCUCGUUA
B6: GS3477 (nucleic acid)
sense: CCUCUCGCCAUUAAAUACUCAUAAAAUAUCCGCACGUACAGUUCUCUUCACUUCGGUACCUGCUAAAUACAGAGAUGAAUCUAAAUUACGUCAGAUAUUUGGCUCAUGCGUGAAAAAGGUUUGGAUAACAAAAGACAGUUCAGAGGUUGACGACCUUGUAUCUGAGCGCGACGAUCUCCUACUAAGAUUAGAAUCAUCUGAAGUUAAGCUUAUUAAAAUUGCAAAUACAGAGAGACUCAAGAUUAACAAGAAAAAAGCUGGAGAUAAUAACUCAUCAUCUGAAGUCGCAGCUCCUGUCCCAGCAUCUCUAGUUGACUACUGGGUUCCAGAAAAUAAGCGUCCGACUCAUAAGCUUGGCUUAUUUGGGCUAGUUGGACAGAAAGUUGAUACGAUUAAAU
antisense: AUUUAAUCGUAUCAACUUUCUGUCCAACUAGCCCAAAUAAGCCAAGCUUAUGAGUCGGACGCUUAUUUUCUGGAACCCAGUAGUCAACUAGAGAUGCUGGGACAGGAGCUGCGACUUCAGAUGAUGAGUUAUUAUCUCCAGCUUUUUUCUUGUUAAUCUUGAGUCUCUCUGUAUUUGCAAUUUUAAUAAGCUUAACUUCAGAUGAUUCUAAUCUUAGUAGGAGAUCGUCGCGCUCAGAUACAAGGUCGUCAACCUCUGAACUGUCUUUUGUUAUCCAAACCUUUUUCACGCAUGAGCCAAAUAUCUGACGUAAUUUAGAUUCAUCUCUGUAUUUAGCAGGUACCGAAGUGAAGAGAACUGUACGUGCGGAUAUUUUAUGAGUAUUUAAUGGCGAGAGG
B7: GS3478 (nucleic acid)
sense: ACCGUCCUGAAAGUAAAGGUGAAAAGAAAGAGCGUCUUCUCAAGGAAGCUACAGCUAUUAAAAAUGGCAACAAGGAGGAUGUCAGUAAGAAGCCAUACACAGUAAAGUAUGGACUCAAUCAUGUCGUUGGUUUGGUUGAGAAUAAGAAAGCUUCUCUAGUCUUAAUACCCAAUGAUGUCGAUCCUAUAGAGUUGGUUAUAUUUCUUCCAGCUCUUUGUCGAAAGAUGGGAGUUCCUUAUGCUAUCAUUAAAGGAAAAGCUAGACUUGGUACUGUUGUACACAAGAAAACUGCUGCUGUAUUGGCAAUAACUGAAGUUCGAUCCGAAGAUAAAUCAGAGCUAUCAAAAUUAAUCCAAGCUAUUAAAGAAGGCUACUCUGAGAAAUAUGAAGAAGCUAAG
antisense: CUUAGCUUCUUCAUAUUUCUCAGAGUAGCCUUCUUUAAUAGCUUGGAUUAAUUUUGAUAGCUCUGAUUUAUCUUCGGAUCGAACUUCAGUUAUUGCCAAUACAGCAGCAGUUUUCUUGUGUACAACAGUACCAAGUCUAGCUUUUCCUUUAAUGAUAGCAUAAGGAACUCCCAUCUUUCGACAAAGAGCUGGAAGAAAUAUAACCAACUCUAUAGGAUCGACAUCAUUGGGUAUUAAGACUAGAGAAGCUUUCUUAUUCUCAACCAAACCAACGACAUGAUUGAGUCCAUACUUUACUGUGUAUGGCUUCUUACUGACAUCCUCCUUGUUGCCAUUUUUAAUAGCUGUAGCUUCCUUGAGAAGACGCUCUUUCUUUUCACCUUUACUUUCAGGACGGU

System: E. necator
Assay: Leaf disc assay, dry inoculum (settling tower), decrease in disease severity / hyphal growth (Example 2)
Conditions: decrease in disease severity (hyphal growth) relative to untreated control, value ± SE; for % decrease =/− SE TP1: time point 1 (untreated control hyphal growth ≥50%); for % decrease =/− SE TP2: time point 2

Molecule | % decrease =/− SE TP1 | % decrease =/− SE TP2
B1 | 21 ± 7% | 19 ± 11%
B2 | 17 ± 5% | 9 ± 8%
B3 | 25 ± 4% | 13 ± 7%
B4 | 28 ± 5% | 22 ± 6%
B5 | 8 ± 11% | 12 ± 10%
B6 | 28 ± 4% | 7 ± 8%
B7 | 29 ± 4% | 13 ± 9%
